# Laboratory results: paper doi:10.1101/2023.05.25.542057 (bioRxiv, 2023)
# B1: CDAN1-interacting nuclease 1 (CDIN1), full-length, recombinant from bacteria (natural protein)
# chain: MILTKAQYDEIAQCLVSVPPTRQSLRKLKQRFPSQSQATLLSIFSQEYQKHIKRTHAKHHTSEAIESYYQRYLNGVVKNGAAPVLLDLANEVDYAPSLMARLILERFLQEHEETPPSKSIINSMLRDPSQIPDGVLANQVYQCIVNDCCYGPLVDCIKHAIGHEHEVLLRDLLLEKNLSFLDEDQLRAKGYDKTPDFILQVPVAVEGHIIHWIESKASFGDECSHHAYLHDQFWSYWNRFGPGLVIYWYGFIQELDCNRERGILLKACFPTNIVTLCHSIA
# Biological target: the molecule itself
# Experiment: SEC-SAXS
protein,measurement,value
B1,stoichiometry N,2
